Data from US20230406950A1 (LYVGEN BIOPHARMA, published 2023).
Where two headings read alike, the source gives them in different places. Each block holds one binder with its values, some of them ahead of it.

Legend:
[1] = target: T1, human CD137 expressed on cells (human, UniProt Q07011 24-255); assay: FACS on CHO cells expressing human CD137 (MFI)
T1 construct: whole, on cells; also called 4-1BB; TNFRSF9
Method: (§1) Anti-GITR/CD137 bi-specific antibodies were analyzed by FACS for their binding properties to human GITR and/or human CD137 expressed on CHO cells. Briefly, cultured cells were harvested, counted and cell viability was evaluated using the Trypan Blue exclusion method. Viable cells were then adjusted to 2×10⁶ cells per mL in PBS containing 2% BSA. 100 μL of this cell suspension were further aliquoted per well into a V-bottom 96-well plate. […] After incubation for 2 hours at 4° C., cells were centrifuged (3 min, 1000× g), washed with 250 μL/well BSA-containing FACS Stain Buffer, resuspended and incubated for an additional 1 hour at 4° C. with 100 μL/well fluorochrome-conjugated anti-IgG antibody for detection of the bisepecific antibody. Cells were then washed with 250 μL/well BSA-containing FACS Stain Buffer, resuspended in 100 μL/well FACS Stain Buffer, acquired and analyzed using a FACS machine. Binding of the bispecific antibodies to human GITR or human CD137 expressing CHO cells were evaluated and the mean fluorescence intensity is plotted in histograms or dot plots.

[2] = target: T2, human OX40 expressed on CHO cells (human, UniProt P43489 29-277); assay: FACS on CHO cells expressing human OX40 (MFI)
T2 construct: whole, on cells
T2 sequence (looked up): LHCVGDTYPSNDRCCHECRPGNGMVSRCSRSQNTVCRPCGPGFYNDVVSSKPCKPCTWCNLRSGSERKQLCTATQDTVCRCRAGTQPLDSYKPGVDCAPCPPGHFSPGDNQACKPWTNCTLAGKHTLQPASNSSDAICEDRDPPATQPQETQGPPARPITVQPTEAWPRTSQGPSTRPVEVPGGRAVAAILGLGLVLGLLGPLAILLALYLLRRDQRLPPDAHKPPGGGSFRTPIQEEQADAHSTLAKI
Method: as §1, with “Anti-OX40/CD137” for “Anti-GITR/CD137”, “OX40” for “GITR”, “1000×g),” for “1000× g),”

[3] = target: T1, human CD137 expressed on cells; assay: FACS on CHO cells expressing human CD137 (MFI); remark: listed apart in the source
Method: as §1, with “Anti-OX40/CD137” for “Anti-GITR/CD137”, “OX40” for “GITR”, “1000×g),” for “1000× g),”

T1 sequence (Q07011 24-255): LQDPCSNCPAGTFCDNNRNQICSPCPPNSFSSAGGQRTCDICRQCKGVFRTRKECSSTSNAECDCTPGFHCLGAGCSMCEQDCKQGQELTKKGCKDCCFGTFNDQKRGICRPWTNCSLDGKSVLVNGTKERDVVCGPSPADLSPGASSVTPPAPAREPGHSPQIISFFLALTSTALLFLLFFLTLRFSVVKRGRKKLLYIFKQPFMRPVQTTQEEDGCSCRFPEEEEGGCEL

binding result [2]: binds
EC50 (read off the curve) [3]: ~0.3 µg/mL
B4: Ly768 (bispecific antibody, human IgG1, kappa)
heavy: EVQLVQSGAEVKKPGASVKVSCKASGYTFTDSYMSWVRQAPGQGLEWIGDMYPDNGDSSYNQKFRERVTITRDTSTSTAYLELSSLRSEDTAVYYCVLAPRWYFSVWGQGTLVTVSSASTKGPSVFPLAPSSKSTSGGTAALGCLVKDYFPEPVTVSWNSGALTSGVHTFPAVLQSSGLYSLSSVVTVPSSSLGTQTYICNVNHKPSNTKVDKKVEPKSCDKTHTCPPCPAPELLGPSVFLFPPKPKDTLMISRTPEVTCVVVDVSHEDPEVKFNWYVDGVEVHNAKTKPREEQYNSTYRVVSVLTVLHQDWLNGKEYKCKVSNKALPAPIEKTISKAKGQPREPQVYTLPPSREEMTKNQVSLTCLVKGFYPSDIAVEWESNGQPENNYKTTPPVLDSDGSFFLYSKLTVDKSRWQQGNVFSCSVMHEALHNHYTQKSLSLSPGK
light: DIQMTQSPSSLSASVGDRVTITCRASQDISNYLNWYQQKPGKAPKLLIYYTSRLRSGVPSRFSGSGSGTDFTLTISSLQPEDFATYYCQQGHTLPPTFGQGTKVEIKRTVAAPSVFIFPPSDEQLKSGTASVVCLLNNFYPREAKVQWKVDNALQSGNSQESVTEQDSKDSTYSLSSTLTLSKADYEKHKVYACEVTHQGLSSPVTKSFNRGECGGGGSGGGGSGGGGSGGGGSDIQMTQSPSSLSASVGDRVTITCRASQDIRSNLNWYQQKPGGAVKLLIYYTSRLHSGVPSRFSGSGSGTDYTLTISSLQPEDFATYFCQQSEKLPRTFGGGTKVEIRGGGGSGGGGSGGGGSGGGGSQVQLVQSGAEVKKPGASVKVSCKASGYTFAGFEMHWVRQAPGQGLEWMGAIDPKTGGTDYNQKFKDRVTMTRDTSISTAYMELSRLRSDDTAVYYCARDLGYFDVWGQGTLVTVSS
notes: Anti-OX40/CD137: Ly598-derived heavy chain

binding result [2]: binds
EC50 (read off the curve) [3]: ~0.6 µg/mL
B5: Ly769 (bispecific antibody, human IgG1, kappa)
heavy: B4 heavy
light: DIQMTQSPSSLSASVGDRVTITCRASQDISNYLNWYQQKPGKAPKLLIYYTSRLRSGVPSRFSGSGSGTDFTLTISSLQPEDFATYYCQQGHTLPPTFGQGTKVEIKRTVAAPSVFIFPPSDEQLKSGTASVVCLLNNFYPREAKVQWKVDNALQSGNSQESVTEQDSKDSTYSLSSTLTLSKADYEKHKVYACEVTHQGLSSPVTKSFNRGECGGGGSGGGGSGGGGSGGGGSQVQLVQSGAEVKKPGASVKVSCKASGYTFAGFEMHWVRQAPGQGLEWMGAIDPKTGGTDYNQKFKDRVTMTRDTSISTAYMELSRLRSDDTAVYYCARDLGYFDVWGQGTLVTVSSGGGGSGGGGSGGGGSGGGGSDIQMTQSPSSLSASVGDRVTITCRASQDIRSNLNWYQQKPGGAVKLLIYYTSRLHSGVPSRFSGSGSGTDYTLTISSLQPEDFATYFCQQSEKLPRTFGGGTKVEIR
notes: as for B4

More lines, now with the values behind:

B1: Ly759 (bispecific antibody, human IgG1, kappa)
heavy: QVQLQESGPGLVKPSETLSLTCTVSGFSLTSYNVHWIRQPPGKGLEWIGVIWSGVRTDYNSVLKPRVTISVDTSKNQFSLKLSSVTAADTAVYYCARGTYDDNYHDVMDAWGQGTLVTVSSASTKGPSVFPLAPSSKSTSGGTAALGCLVKDYFPEPVTVSWNSGALTSGVHTFPAVLQSSGLYSLSSVVTVPSSSLGTQTYICNVNHKPSNTKVDKKVEPKSCDKTHTCPPCPAPELLGPSVFLFPPKPKDTLMISRTPEVTCVVVDVSHEDPEVKFNWYVDGVEVHNAKTKPREEQYNSTYRVVSVLTVLHQDWLNGKEYKCKVSNKALPAPIEKTISKAKGQPREPQVYTLPPSREEMTKNQVSLTCLVKGFYPSDIAVEWESNGQPENNYKTTPPVLDSDGSFFLYSKLTVDKSRWQQGNVFSCSVMHEALHNHYTQKSLSLSPGGGGGSGGGGSGGGGSGGGGSQVQLVQSGAEVKKPGASVKVSCKASGYTFAGFEMHWVRQAPGQGLEWMGAIDPKTGGTDYNQKFKDRVTMTRDTSISTAYMELSRLRSDDTAVYYCARDLGYFDVWGQGTLVTVSSGGGGSGGGGSGGGGSGGGGSDIQMTQSPSSLSASVGDRVTITCRASQDIRSNLNWYQQKPGGAVKLLIYYTSRLHSGVPSRFSGSGSGTDYTLTISSLQPEDFATYFCQQSEKLPRTFGGGTKVEIR
light: EIVLTQSPATLSLSPGERATLSCRASKSVRTGMHWYQQKPGQAPRLLIYGASNLESGIPARFSGSGSGTDFTLTISSLEPEDFAVYYCQQSWNHFTFGQGTKLEIKRTVAAPSVFIFPPSDEQLKSGTASVVCLLNNFYPREAKVQWKVDNALQSGNSQESVTEQDSKDSTYSLSSTLTLSKADYEKHKVYACEVTHQGLSSPVTKSFNRGEC
notes: Anti-GITR/CD137: TM685-derived heavy chain fused to Ly1630 scFv (VH-VL); TM685 light chain
EC50 (read off the curve) [1]: ~0.6 µg/mL

B2: Ly756 (bispecific antibody, human IgG1, kappa)
heavy: QVQLVQSGAEVKKPGASVKVSCKASGYTFAGFEMHWVRQAPGQGLEWMGAIDPKTGGTDYNQKFKDRVTMTRDTSISTAYMELSRLRSDDTAVYYCARDLGYFDVWGQGTLVTVSSASTKGPSVFPLAPSSKSTSGGTAALGCLVKDYFPEPVTVSWNSGALTSGVHTFPAVLQSSGLYSLSSVVTVPSSSLGTQTYICNVNHKPSNTKVDKKVEPKSCDKTHTCPPCPAPELLGPSVFLFPPKPKDTLMISRTPEVTCVVVDVSHEDPEVKFNWYVDGVEVHNAKTKPREEQYNSTYRVVSVLTVLHQDWLNGKEYKCKVSNKALPAPIEKTISKAKGQPREPQVYTLPPSREEMTKNQVSLTCLVKGFYPSDIAVEWESNGQPENNYKTTPPVLDSDGSFFLYSKLTVDKSRWQQGNVFSCSVMHEALHNHYTQKSLSLSPGK
light: DIQMTQSPSSLSASVGDRVTITCRASQDIRSNLNWYQQKPGGAVKLLIYYTSRLHSGVPSRFSGSGSGTDYTLTISSLQPEDFATYFCQQSEKLPRTFGGGTKVEIRRTVAAPSVFIFPPSDEQLKSGTASVVCLLNNFYPREAKVQWKVDNALQSGNSQESVTEQDSKDSTYSLSSTLTLSKADYEKHKVYACEVTHQGLSSPVTKSFNRGECGGGGSGGGGSGGGGSGGGGSEIVLTQSPATLSLSPGERATLSCRASKSVRTGMHWYQQKPGQAPRLLIYGASNLESGIPARFSGSGSGTDFTLTISSLEPEDFAVYYCQQSWNHFTFGQGTKLEIKGGGGSGGGGSGGGGSGGGGSQVQLQESGPGLVKPSETLSLTCTVSGFSLTSYNVHWIRQPPGKGLEWIGVIWSGVRTDYNSVLKPRVTISVDTSKNQFSLKLSSVTAADTAVYYCARGTYDDNYHDVMDAWGQGTLVTVSS
notes: Anti-GITR/CD137: Ly1630 heavy chain; Ly1630 light chain fused to TM685 scFv (VL-VH)
EC50 (read off the curve) [1]: ~0.1 µg/mL

B3: Ly757 (bispecific antibody, human IgG1, kappa)
heavy: B2 heavy
light: DIQMTQSPSSLSASVGDRVTITCRASQDIRSNLNWYQQKPGGAVKLLIYYTSRLHSGVPSRFSGSGSGTDYTLTISSLQPEDFATYFCQQSEKLPRTFGGGTKVEIRRTVAAPSVFIFPPSDEQLKSGTASVVCLLNNFYPREAKVQWKVDNALQSGNSQESVTEQDSKDSTYSLSSTLTLSKADYEKHKVYACEVTHQGLSSPVTKSFNRGECGGGGSGGGGSGGGGSGGGGSQVQLQESGPGLVKPSETLSLTCTVSGFSLTSYNVHWIRQPPGKGLEWIGVIWSGVRTDYNSVLKPRVTISVDTSKNQFSLKLSSVTAADTAVYYCARGTYDDNYHDVMDAWGQGTLVTVSSGGGGSGGGGSGGGGSGGGGSEIVLTQSPATLSLSPGERATLSCRASKSVRTGMHWYQQKPGQAPRLLIYGASNLESGIPARFSGSGSGTDFTLTISSLEPEDFAVYYCQQSWNHFTFGQGTKLEIK
notes: Anti-GITR/CD137: Ly1630 heavy chain; Ly1630 light chain fused to TM685 scFv (VH-VL)
EC50 (read off the curve) [1]: ~0.2 µg/mL
